Series [1] addresses T1, RBP7910 WT (Trypanosoma brucei, UniProt Q38AH3 9-189).
T1 sequence: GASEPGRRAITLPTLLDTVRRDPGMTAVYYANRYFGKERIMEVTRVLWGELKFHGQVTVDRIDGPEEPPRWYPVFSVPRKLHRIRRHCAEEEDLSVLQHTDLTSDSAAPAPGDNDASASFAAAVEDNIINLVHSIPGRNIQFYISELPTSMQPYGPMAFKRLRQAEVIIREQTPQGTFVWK
Description: EMSA. To be noted: RBB50: 20 mM Tris-HCl pH 7.6, 50 mM KCl, 5 mM MgCl2, 100 mg/mL BSA (so in the source), 10% glycerol, 1 mM DTT, plus 100 mM KCl and 20 U RNasin, 20 ul, 30 min, RT …. Background: A gel shift assay detects complexes by their altered migration in electrophoresis.

The target in series [2] is T1, RBP7910 WT. Description: competition. To be noted: RBB50: 20 mM Tris-HCl pH 7.6, 50 mM KCl, 5 mM MgCl2, 100 mg/mL BSA (so in the source), 10% glycerol, 1 mM DTT, plus 100 mM KCl and 20 U RNasin; 20 ul, 30 min, RT ….
In series [3] the target is T2, RBP7910 WT (Trypanosoma brucei) (UniProt Q38AH3).
T2 sequence: T1 sequence
The series can be described thus: competition. The note with it: RBB50: 20 mM Tris-HCl pH 7.6, 50 mM KCl, 5 mM MgCl2, 100 mg/mL BSA (so in the source), 10% glycerol, 1 mM DTT, plus 100 mM KCl and 20 U RNasin, 20 ul, 30 min, RT ….

Series [4] has as its target T1, RBP7910 WT. The series can be described thus: EMSA; 95% CI 1.25-1.97; RBB50: 20 mM Tris-HCl pH 7.6, 50 mM KCl, 5 mM MgCl2, 100 mg/mL BSA (so in the source), 10% glycerol, 1 mM DTT, plus 100 mM KCl and 20 U RNasin; 20 ul, 30 min, RT; native 10% TBE gel at 4 C. The note with it: protein: recombinant; tags: N-terminal 6xHis (pET30-a); label: 32P (UTP body or 3' pCp).
The target in series [5] is T1, RBP7910 WT. The series can be described thus: EMSA; 1 nM labeled RNA, protein titration; specificity confirmed with unlabeled poly AU; RBB50: 20 mM Tris-HCl pH 7.6, 50 mM KCl, 5 mM MgCl2, 100 mg/mL BSA (so in the source), 10% glycerol, 1 mM DTT, plus 100 mM KCl and 20 U RNasin; 20 ul, 30 min, RT; native 10% TBE gel at 4 C. To be noted: protein: recombinant; tags: N-terminal 6xHis (pET30-a); label: 32P.

The target in series [6] is T1, RBP7910 WT. Description: competition; vs labeled gA6[14]; RBB50: 20 mM Tris-HCl pH 7.6, 50 mM KCl, 5 mM MgCl2, 100 mg/mL BSA (so in the source), 10% glycerol, 1 mM DTT, plus 100 mM KCl and 20 U RNasin; 20 ul, 30 min, RT; native 10% TBE gel at 4 C. To be noted: protein: recombinant; tags: N-terminal 6xHis (pET30-a); label: unlabeled; one predicted stem-loop, 3' oligo(U) tail.

Usually Kd stands for the free concentration of one partner at which half of the binding sites on the other are occupied at equilibrium, for simple one-to-one binding. Consider CYb pre-edited mRNA, for which the Kd with RBP7910 WT [1] (95% CI 2.09-3.66) was 2.78 nM. In the series with RBP7910 WT [2], the binding signal (% reduction of bound labeled gA6[14]) was found to be 50. As to gA6[14] (delta16G) gRNA with U-tail, the Kd with RBP7910 WT [1] (95% CI 0.18-0.27) was determined as 0.21 nM. Take “GGGAUUAAAAGACAAUGUGAAUUUCUUAAGGUAAUAAAGGGAAUAAUUUUUUUUUUUUUUUU [natural CYb gRNA (gCYb[558]) with U-tail]”: in series [3], the binding signal (% reduction of bound labeled gA6[14]) worked out at 50. Consider “GGGGGGACUGACAUUAAAAGAAAUGUGAAUUUUUCUCCGCUUUU [42-mer CYb gRNA (gCYb[558] USD-2A-42nt), no U-tail]”, for which the binding signal in series [3] (scale: fold less efficient competitor than natural gCYb) was 10. Take poly U RNA: in the series with RBP7910 WT [2], the binding signal (% reduction of bound labeled poly AU) turned out to be 50.

B1: CYb edited mRNA (ssRNA)
RNA: GGGAAAUAUGUUUUUUCGUGUUAGAUUUUUGUUAUUUUUUUUAUUAUUUAGAAAUUUAUGUUGUCUUUUUA
Regarding B1, the Kd with RBP7910 WT [4] stood at 1.57 ± 0.06 nM.

B2: poly AU RNA (ssRNA)
RNA: GGGAUUCUUUUCGAGUCUCUUUUAUUUAUUUAUUUAUUUAUUUUUUCUCUCUUAUU
For B2, the binding result with RBP7910 WT [5] was “binds”.

B3: uridylated non-guide RNA (49 nt) (structured_RNA)
RNA: GGGUACCAGAUACAUACUAAGGAAUUCGAUAUCACUAUUUUUUUUUUUUUU
B3: in the series with RBP7910 WT [6], the binding signal was 10 fold less efficient competitor than gA6[14].

(Values after publication PMC6459835, “The RNA binding activity of the first identified trypanosome protein with Z-DNA-binding domains”.)
